Molecular target: GST-Nup153 (human wt Nup153) (human)
Experiment: co-IP; competition: 200 ng P-rC with 200 ng GST-Nup153 and different concentrations of importin β together, 2 h at 37°C in transport buffer; anti-capsid beads; mAb414 blot

importin β (karyopherin) (from UniProt Q14974 1-876) (natural protein)
molar excess of importin β that prevented Nup153 binding to P-rC: > 150 fold

— publication PMC2813275
